Data: US11542479B2, “Alcohol dehydrogenase mutant and use thereof” (priority 2019, dated 2023)

Legend:
Format in all cases: biochemical
[1] = target: alcohol dehydrogenase (KpADH, SEQ ID NO: 1) mutant M63, K36I/T132D/N159D/K210E/T248A/Q272L (Vanderwaltozyma polyspora, UniProt A7TM80, K210E/K36I/N159D/Q272L/T132D/T248A); test: Kinetic parameters in asymmetric reduction of (4-chlorophenyl)-(pyridin-2-yl)-methanone, mutant M63; conditions: mutant M63 vs wild-type alcohol dehydrogenase
Description: (§1) The detection method of enzyme activity of the alcohol dehydrogenase is as follows:
(§2) A sodium phosphate buffer (PBS, 100 mM, pH 7.0) containing 1 mM NADPH and 1.0 mM substrate prochiral (4-chlorophenyl)-(pyridin-2-yl)-methanone is stood at 30° C. for 2 min, and then 10 μL of a pure enzyme solution is added to the sodium phosphate buffer, and reacted at 30° C. During the reaction, the change in absorbance of the reaction solution at 340 nm is measured on a microplate reader, and used to calculate the enzyme activity.
(§3) The initial reduction activity of wild-type alcohol dehydrogenase and alcohol dehydrogenase mutants M63, M64 and S5 obtained in Example 1 were respectively determined with 0.1-5 mM prochiral diaryl ketone (4-chlorophenyl)-(pyridin-2-yl)-methanone as a substrate. The data was fitted by the nonlinear regression method in Graph Pad Prism 7.0 software, to obtain the Km and Vmax in Michaelis-Menten equation. Then kcat and kcat/Km were calculated.
(§4) kcat is calculated by the formula kcat=Vmax·M/60, where M is the molecular weight of the enzyme, in kDa.

[2] = target: alcohol dehydrogenase (KpADH, SEQ ID NO: 1) mutant S5, Q136N/F161V/S196G/E214G/S237C (Vanderwaltozyma polyspora, UniProt A7TM80, E214G/F161V/Q136N/S196G/S237C); test: Kinetic parameters in asymmetric reduction of (4-chlorophenyl)-(pyridin-2-yl)-methanone, mutant S5; conditions: mutant S5 vs wild type, to (S)-alcohol
Description: as §1, §2, §3, §4

[3] = target: alcohol dehydrogenase (KpADH, SEQ ID NO: 1) mutant M64, K36I/T132D/N159D/K210E/T248A/Q272L/Q136N/F161V/S196G/E214G/S237C (Vanderwaltozyma polyspora, UniProt A7TM80, E214G/F161V/K210E/K36I/N159D/Q136N/Q272L/S196G/S237C/T132D/T248A); test: Kinetic parameters in asymmetric reduction of (4-chlorophenyl)-(pyridin-2-yl)-methanone, mutant M64
Description: as §1, §2, §3, §4

[4] = tested on: O=C(c1ccc(Cl)cc1)c1ccccn1; test: Kinetic parameters in asymmetric reduction of (4-chlorophenyl)-(pyridin-2-yl)-methanone, mutant M63; conditions: other: mutant M63; 0.1-5 mM substrate; pH 7.0; 30.0 °C
Description: as §1, §2, §3, §4

[5] = tested on: O=C(c1ccc(Cl)cc1)c1ccccn1; test: Kinetic parameters in asymmetric reduction of (4-chlorophenyl)-(pyridin-2-yl)-methanone, mutant M64; conditions: other: mutant M64; 0.1-5 mM substrate; pH 7.0; 30.0 °C
Description: as §1, §2, §3, §4

[6] = tested on: O=C(c1ccc(Cl)cc1)c1ccccn1; test: Kinetic parameters in asymmetric reduction of (4-chlorophenyl)-(pyridin-2-yl)-methanone, mutant S5; conditions: other: mutant S5; 0.1-5 mM substrate; pH 7.0; 30.0 °C
Description: as §1, §2, §3, §4

[7] = tested on: O=C(c1ccc(Cl)cc1)c1ccccn1; test: Kinetic parameters in asymmetric reduction of (4-chlorophenyl)-(pyridin-2-yl)-methanone, wild type; conditions: other: wild type; 0.1-5 mM substrate; pH 7.0; 30.0 °C
Description: as §1, §2, §3, §4

Q: For O=C(c1ccc(Cl)cc1)c1ccccn1 [(4-chlorophenyl)-(pyridin-2-yl)-methanone], which “catalytic efficiency relative to wild type” value [1] is on record?
A: 1.3 times

Q: And the “catalytic efficiency compared with wild type” value [2]?
A: decreased compared with the wild type

Q: And the “catalytic efficiency relative to mutant S5” value ([3]; mutant M64 vs mutant S5)?
A: 1.35 times

Q: And the “catalytic efficiency compared with wild type” value ([3]; mutant M64 vs wild type, to (S)-alcohol)?
A: close to that of the wild type

Q: “alcohol dehydrogenase (KpADH, SEQ ID NO: 1) mutant M63, K36I/T132D/N159D/K210E/T248A/Q272L (Vanderwaltozyma polyspora DSM 70294; K210E/K36I/N159D/Q272L/T132D/T248A)” was tested. Which Km [4] did it give?
A: 830 ± 200 µM

Q: What about the Vmax [4] of the same molecule?
A: 32.8 µmol/min/mg

Q: What about the kcat [4] of the same molecule?
A: 22.8 ± 2.14 s⁻¹

Q: And the kcat/Km [4]?
A: 27500 M⁻¹ s⁻¹

Q: For “alcohol dehydrogenase (KpADH, SEQ ID NO: 1) mutant M64, K36I/T132D/N159D/K210E/T248A/Q272L/Q136N/F161V/S196G/E214G/S237C (Vanderwaltozyma polyspora DSM 70294; E214G/F161V/K210E/K36I/N159D/Q136N/Q272L/S196G/S237C/T132D/T248A)”, which Km [5] is on record?
A: 860 ± 140 µM

Q: What about the Vmax [5] of the same molecule?
A: 25.1 µmol/min/mg

Q: And the kcat [5]?
A: 17.4 ± 1.1 s⁻¹

Q: And the kcat/Km [5]?
A: 20300 M⁻¹ s⁻¹

Q: How did the Km [6] turn out when “alcohol dehydrogenase (KpADH, SEQ ID NO: 1) mutant S5, Q136N/F161V/S196G/E214G/S237C (Vanderwaltozyma polyspora DSM 70294; E214G/F161V/Q136N/S196G/S237C)” was run?
A: 1090 ± 100 µM

Q: And the Vmax [6]?
A: 24.4 µmol/min/mg

Q: What about the kcat [6] of the same molecule?
A: 16.1 ± 1.7 s⁻¹

Q: What about the kcat/Km [6] of the same molecule?
A: 14800 M⁻¹ s⁻¹

Q: With “wild-type alcohol dehydrogenase (KpADH), SEQ ID NO: 1 (Vanderwaltozyma polyspora DSM 70294)” as the molecule, how does the Km [7] read?
A: 950 ± 100 µM

Q: And the Vmax [7]?
A: 31.8 µmol/min/mg

Q: What about the kcat [7] of the same molecule?
A: 20.1 ± 1 s⁻¹

Q: What about the kcat/Km [7] of the same molecule?
A: 21200 M⁻¹ s⁻¹
